Assays:
[1] = target: DnaK (protein used for surface plasmon resonance) (Mycoplasma fermentans); assay: SPR; BIAcore T100, 25°C, HBS-EP (10 mM HEPES, 150 mM NaCl, 0.05% surfactant P20, pH 7.4, 3 mM EDTA); DnaK (2274.9 RU) amine-coupled on CM5 chip, DnaK as analyte at 35 ul/min, 120 s association, 600 s dissociation; preliminary kinetic analysis; self-binding (homodimer by the paper's words)
[2] = target: DnaK (protein used for surface plasmon resonance) (Mycoplasma fermentans); assay: SPR; BIAcore T100, 25°C, HBS-EP (10 mM HEPES, 150 mM NaCl, 0.05% surfactant P20, pH 7.4, 3 mM EDTA); DnaK (2220 RU) amine-coupled on CM5 chip, PARP1 as analyte at 35 ul/min, 250 s association, 600 s dissociation; preliminary kinetic analysis

| Substance | Kd [1] [nM] | Kd [2] [nM] |
| --- | --- | --- |
| DnaK (protein used for surface plasmon resonance) (natural protein) | 29.6 |  |
| PARP1 (protein used for surface plasmon resonance) (from UniProt P09874 1-1014) (natural protein) |  | 25 |

— paper PMC9651203
